Literature values, collected in US6051590A, “Immunosuppressant tricyclic compounds” (Merck & Co., Inc., priority 1999, dated 2000).

Molecular target: T1, Kv 1.3 channels (CHO cells transfected with Kv 1.3) (Homo sapiens, UniProt P22001)
T1 construct: expressed in transfected cells; host or cells: CHO cells
Conditions: stated in the method for the reference blocker

T1 sequence (P22001 whole entry): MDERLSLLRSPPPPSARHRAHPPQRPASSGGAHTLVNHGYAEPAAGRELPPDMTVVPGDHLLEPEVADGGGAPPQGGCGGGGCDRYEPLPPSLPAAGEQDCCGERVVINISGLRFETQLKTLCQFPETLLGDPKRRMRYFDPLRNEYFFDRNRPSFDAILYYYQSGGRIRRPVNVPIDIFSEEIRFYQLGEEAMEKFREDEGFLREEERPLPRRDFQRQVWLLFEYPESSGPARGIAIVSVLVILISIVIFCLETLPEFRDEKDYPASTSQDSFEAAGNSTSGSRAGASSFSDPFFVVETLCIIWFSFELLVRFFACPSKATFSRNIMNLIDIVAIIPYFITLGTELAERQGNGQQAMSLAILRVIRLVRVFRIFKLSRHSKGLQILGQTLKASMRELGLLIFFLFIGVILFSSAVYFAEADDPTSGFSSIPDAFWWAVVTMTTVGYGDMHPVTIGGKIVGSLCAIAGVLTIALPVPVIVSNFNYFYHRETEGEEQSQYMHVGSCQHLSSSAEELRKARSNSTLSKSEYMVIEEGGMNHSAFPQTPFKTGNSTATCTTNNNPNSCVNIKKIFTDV

For “margatoxin (TIINVKCTSPKQCLPPCKAQFGQSAGAKCMNGKCKCYPH; UniProt P40755 1-39, looked up)”, the IC50 is given as 0.1 nM.
